Assay results reported in IntAct's records for PubMed 33947832.

B1: ORF3a protein (SARS-CoV-2), P0DTC3 (parent)
chain: MDLFMRIFTIGTVTLKQGEIKDATPSDFVRATATIPIQASLPFGWLIVGVALLAVFQSASKIITLKKRWQLALSKGVHFVCNLLLLFVTVYSHLLLVAAGLEAPFLYLYALVYFLQSINFVRIIMRLWLCWKCRSKNPLLYDANYFLCWHTNCYDYCIPYNSVTSSIVITSGDGTTSPISEHDYQIGGYTEKWESGVKDCVVLHSYFTSDYYQLYSTQLSTDTGVEHVTFFIYNKIVDEPEEHVQIHTIDGSSGVVNPVMEPIYDEPTTTTSVPL
partner: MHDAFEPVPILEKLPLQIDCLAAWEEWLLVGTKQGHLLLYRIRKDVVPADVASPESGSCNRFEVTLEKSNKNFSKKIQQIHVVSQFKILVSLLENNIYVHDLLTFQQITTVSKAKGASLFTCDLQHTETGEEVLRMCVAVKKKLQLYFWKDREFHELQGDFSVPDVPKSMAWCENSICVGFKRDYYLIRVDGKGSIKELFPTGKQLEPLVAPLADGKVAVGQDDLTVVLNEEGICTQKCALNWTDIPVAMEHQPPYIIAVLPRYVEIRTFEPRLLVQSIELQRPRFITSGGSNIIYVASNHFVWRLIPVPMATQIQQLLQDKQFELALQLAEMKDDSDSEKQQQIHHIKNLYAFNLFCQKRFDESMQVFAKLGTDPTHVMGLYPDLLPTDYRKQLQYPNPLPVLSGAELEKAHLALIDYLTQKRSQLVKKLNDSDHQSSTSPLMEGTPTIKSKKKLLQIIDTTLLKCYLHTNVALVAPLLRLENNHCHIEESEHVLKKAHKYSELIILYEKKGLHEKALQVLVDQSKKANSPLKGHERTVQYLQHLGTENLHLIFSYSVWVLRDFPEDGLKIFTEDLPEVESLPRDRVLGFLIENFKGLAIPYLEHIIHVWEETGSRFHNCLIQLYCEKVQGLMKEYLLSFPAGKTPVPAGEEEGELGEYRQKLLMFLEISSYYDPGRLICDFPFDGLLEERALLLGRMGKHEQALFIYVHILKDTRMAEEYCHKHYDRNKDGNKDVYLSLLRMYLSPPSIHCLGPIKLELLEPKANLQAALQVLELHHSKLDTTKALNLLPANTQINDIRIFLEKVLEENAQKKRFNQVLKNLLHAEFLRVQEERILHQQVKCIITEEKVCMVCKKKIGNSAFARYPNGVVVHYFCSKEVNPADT

Variants of: B1
Conditions: with vps39_human VPS39, Q96JC1

Row | Variant | effect of a mutation on the interaction
1 | Y160A | disrupting interaction strength
